Source: PMC12226076, “Structural insights and rational design of Pseudomonasputida KT2440 omega transaminases for enhanced biotransformation of (R)-PAC to (1R, 2S)-Norephedrine” (The Journal of Biological Chemistry, 2025)

Columns and labels:
TA_2799 = biological target: T1, TA_2799 (Pseudomonas putida, UniProt Q88J50); assay: X-ray crystal structure, […] Å; assay type: binding; conditions: covalent; internal aldimine with catalytic K286
T1 construct: gene PP_2799; pET43.1b, 6xHis tag, expressed in E. coli BL21 (DE3), Ni-NTA; homodimer; catalytic K286

C[C@H](N)c1ccccc1 = assay: purified protein; assay type: biochemical, Pseudomonas putida; conditions: 20 mM pyruvate, 2 mM PLP, 50 mM HEPES pH 8.0, 30 °C, (S)-MBA 0-5 mM

| Compound | X-ray crystal structure, 1.76 Å (TA_2799) | Km (C[C@H](N)c1ccccc1) | Vmax (C[C@H](N)c1ccccc1) | kcat (C[C@H](N)c1ccccc1) | kcat/Km (C[C@H](N)c1ccccc1) |
| --- | --- | --- | --- | --- | --- |
| Cc1ncc(COP(=O)(O)O)c(C=O)c1O [PLP] | covalently bound internal aldimine form of the PLP bound to the catalytic K286 residue | – | – | – | – |
| TA_2799 (Pseudomonas putida KT2440) | – | 6459 ± 621 µM | 0.104 µmol/min/mg | 0.072 ± 0.00465 s⁻¹ | 11.1 M⁻¹ s⁻¹ |
| TA_2799 (Pseudomonas putida KT2440; C324Y/L322F) | – | 1188 ± 122 µM | – | 0.02302 ± 0.000817 s⁻¹ | – |
| TA_2799 (Pseudomonas putida KT2440; L322F) | – | 1068 ± 566 µM | 0.042 µmol/min/mg | 0.0296 ± 0.0006 s⁻¹ | 27.7 M⁻¹ s⁻¹ |
| TA_5182 (Pseudomonas putida KT2440) | – | 1089 ± 117 µM | 0.007 µmol/min/mg | 0.0049 ± 0.000117 s⁻¹ | 4.48 M⁻¹ s⁻¹ |
| TA_5182 (Pseudomonas putida KT2440; G119N) | – | 347 ± 24 µM | 0.003 µmol/min/mg | 0.00245 ± 3.33e-05 s⁻¹ | 7.05 M⁻¹ s⁻¹ |
